Source: US20220380455A1 (Alector, published 2022)

Legend:
cynomolgus (cyno) MS4A6A [1] = molecular target: T1, cynomolgus (cyno) MS4A6A (cynomolgus, UniProt Q9H2W1 1-246 (human entry)); assay: flow cytometry, hybridoma supernatant, HEK293 transfected with cyno MS4A6A over parental HEK293; Screen 1
T1 construct: Full-length protein expressed in transfected HEK293, U937 or K562 cells (flow cytometry)
T1 chain: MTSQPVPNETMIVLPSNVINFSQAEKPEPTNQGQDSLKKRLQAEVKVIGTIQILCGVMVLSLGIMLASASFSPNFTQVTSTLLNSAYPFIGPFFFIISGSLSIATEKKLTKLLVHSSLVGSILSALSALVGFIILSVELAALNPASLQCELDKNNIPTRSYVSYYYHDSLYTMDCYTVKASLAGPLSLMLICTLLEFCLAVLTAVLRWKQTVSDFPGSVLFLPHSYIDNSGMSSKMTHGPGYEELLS
Method: (§1) Positive clones were expanded and then rescreened for specificity against HEK293 cells overexpressing cyno MS4A6A and parental HEK293 cells. Briefly, previously prepared, cryopreserved transiently-transfected cells were labeled with LIVE/DEAD Fixable Aqua Dead Cell Stain Kit (ThermoFisher Scientific L34957) on ice for 30 minutes. After a wash with PBS, 2×10⁵ cells were aliquoted per well in 96-well round bottom plates and incubated with 50 μl of culture supernatant on ice for 30 mins. […] Following this secondary incubation, the cells were again washed twice with ice-cold FACS buffer and resuspended in a final volume of 200 μl of FACS buffer. Analysis was performed on a FACS Canto system (BD Biosciences), with sort gates drawn to exclude dead (Aqua-positive) cells. […] The screen was repeated twice, and the numbers reported here represent the ratio of mean fluorescence level in transfected cells over parental cells.

BSA-MS4A6A-ECL2 peptide = molecular target: T2, BSA-MS4A6A-ECL2 peptide (human, BSA-conjugated); assay: peptide ELISA, hybridoma supernatant
T2 construct: Synthetic peptide derived from ECL2, conjugated to BSA, coated on the ELISA plate; also called MS4A6A-ECL2 BSA conjugated peptide; BSA-MS4A6A-ELC2 peptide
T2 peptide: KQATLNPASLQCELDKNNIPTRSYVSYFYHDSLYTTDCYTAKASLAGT
Method: Anti-MS4A6A hybridoma supernatants were tested for binding to MS4A6A peptides derived from ECL1 (amino acid residues 68-85 of human MS4A6A of SEQ ID NO:1) and ECL2 (amino acid residues 138-185 of human MS4A6A of SEQ ID NO:1) sequences, using an enzyme-linked immunosorbent assay (ELISA). Briefly, 96-well polystyrene plates were coated with 1-10 μg/mL of synthetic free or BSA-conjugated peptides in coating buffer (0.05M carbonate buffer, pH9.6, Millipore Sigma C3041) overnight at 4° C. Coated plates were then blocked with ELISA diluent (PBS+0.5% BSA+0.05% Tween20) for 1-hour, washed 3×300 μL in PBST (PBS+0.05% Tween20, Thermo 28352), and then the antibodies were added at various dilutions (100-1000×) in ELISA diluent. After 30 mins incubation (room temperature, with shaking), the plates were washed 3×300 μl in PBST. A secondary anti-mouse HRP antibody (Jackson Immunoresearch CAT #115-035-003) was added at a 1:1000 dilution in ELISA diluent (50 μL/well) and incubated for 30 minutes at room temperature with shaking. After a final set of washes (3×300 μl in PBST), 50 μL of TMB substrate (BioFx TMBW-1000-01) was added and the reaction was then quenched after 5-10 mins with 50 μL of stop solution (BioFx BSTP-1000-01). The quenched reaction wells were detected for absorbance at […] with a BioTek Synergy Microplate Reader using GENS 2.04 software.

MS4A6A ECL2 peptide = molecular target: T3, MS4A6A ECL2 peptide (human); assay: array SPR (Carterra MX-96), antibody captured, peptide injected; both duplicates N/A
T3 construct: also called MS4A6A ECL-2 peptides
T3 peptide: T2 peptide
Method: (§2) Binding kinetic characterization of the purified antibodies to MS4A6A ECL1 and ECL2 peptides was performed by Carterra (South San Francisco, Calif.) using a proprietary array Surface Plasmon Resonance (SPR) instrument (MX-96) as follows. Antibodies were printed onto a CMD5OOD chip (Xantec #SPMX CMD500D lot #SC CMD500D0117.a Exp. 31.12.18) using the Continuous Flow Microspotter (CFM). First, the chip was activated with 100 mM MES pH 5.5, 100 μL EDC (133 mM final), 100 μL of S-NHS (33.3 mM final), for 7 minutes. A lawn of anti-mouse IgG-Fc (Jackson ImmunoResearch CAT #115-005-071 lot#130410) was injected for 15 minutes to establish a surface density of 10000-12000 RU, after which the chip surface was deactivated with 1 M ethanolamine at pH 8.5 for 10 minutes. Anti-MS4A6A antibodies in question, in the form of hybridoma supernatants diluted 2:1 with HBS-EP+buffer (Teknova CAT #H8022), were then printed as duplicates with a 20 minute and a 5 minutes print from the same sample solution. Control antibodies were diluted to 20 μ/ml for printing.
(§3) To perform kinetic analysis, the peptides in question were prepared in HBS-EP+buffer with lmg/ml BSA at final assay concentrations of 2000 nM, 400 nM, 80 nM, 16 nmM, and 3.2 nM. These were then injected on the chip for five minutes, followed by a seven-minute dissociation period at 8 uL per second in a non-regenerative kinetic series. Duplicate measurements for each anti-MS4A6A antibody were taken to ensure reproducibility.
(§4) Kₐ (association rate constant; Kₒₙ), Kd (dissociation rate constant; Koff) and KD (equilibrium constant) to MS4A6A ECL-2 peptides were calculated for each of the 23 anti-MS4A6A antibodies tested, the results of which are shown below in Table 5 (clones that bound too weakly to determine these values are denoted as N/A in Table 5).

MS4A6A ECL1 peptide = molecular target: T4, MS4A6A ECL1 peptide (human); assay: array SPR (Carterra MX-96), antibody captured, peptide injected
T4 construct: the description elsewhere gives ECL1 as 68-84; Human and cyno ECL1 are said to be identical
T4 peptide: SASFSPNFTQVTSTLLNS
Method: as §2, §3, §4

cynomolgus (cyno) MS4A6A [2] = molecular target: T1, cynomolgus (cyno) MS4A6A; assay: flow cytometry, hybridoma supernatant, HEK293 transfected with cyno MS4A6A over parental HEK293; Screen 2
Method: as §1

ratio of APC MFI on MS4A6A+/HEK parental cells (cynomolgus (cyno) MS4A6A [1]): 7.5 ratio | binding result (BSA-MS4A6A-ECL2 peptide): no binding | binding result (MS4A6A ECL2 peptide): no binding (tested: 2000 nM) | binding result (MS4A6A ECL1 peptide): no binding (tested: 2000 nM) | ratio of APC MFI on MS4A6A+/HEK parental cells (cynomolgus (cyno) MS4A6A [2]): 7.6 ratio
B1: 6A-1 (antibody, V domains shown)
VH: EVQLQQSGPELVKPGASVKISCKASGYSFTGYYMHWVKQSPEDSLEWIGAINPSTGGSTYSQKFKDKATLTVDKSSSTAYMQLKSLTSEESAVYYCTRFDGYGYWGQGTLVTVSA
VL: DIVMTQAAFSNPVTLGTSASISCRSSKSLLHSNGITYLYWYLQKPGQSLQLLIYQMSNLASGVPDRFSGSGSGTDFTLRISRVEAEDVGVYYCAQNLELPWTFGGGTKLEIK
notes: Mouse hybridoma antibody, tested as hybridoma supernatant (mouse IgG, detected or captured via anti-mouse IgG Fc); also called anti-MS4A6A antibody 6A-1
